Laboratory results from patent US8216581 (University of Pennsylvania, dated 2012).

Key:
[1] = target: T1, GPIIb/IIIa on intact human platelets (human, UniProt P08514 32-1039; P05106 27-788); test: immunoprecipitation from biotinylated platelets; agrees with ELISA and Glanzmann platelet flow cytometry;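 note: precipitated biotin-labelled platelet membrane proteins visualized with biotinylated horseradish peroxidase-avidin complexes, scored for polypeptides behaving like GPIIb/IIIa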
T1 construct: whole, on cells; also called platelet GPIIb/IIIa; αIIbβ3
Text: Precipitated, biotinylated platelet membrane proteins were detected with biotinylated horseradish peroxidase-avidin complexes (ABC Staining Kit, Pierce).

[2] = target: T2, GPIa/IIa on a stable K562 cell line (UniProt P17301 30-1181; P05556 21-798, limits assumed); test: flow cytometry on K562 cells expressing GPIa/IIa
T2 construct: whole, on cells; also called K562 cell line expressing GPIa/IIa

Binder | binding result [1] | binding result [2]
H46L16 (Fab, V domains shown, Soluble Fab, ITP patient A, clone A) VH: QVQLVESGGGVVQPGRSLRLSCAASGFTFSNFNMHWVRQAPGKGLEWVALISYDGSNKNYADSVKGRFTISRDNSKNTLFLQMNSLRAEDTAVYYCMVVGAFDYWGQGTLVTVSS VL: DIQMTQSPSSLSASVGDRVTITCRASQGISSYLAWYQQKPGKVPKLLIYAASTLQSGVPSRFSGSGSGTDFTLTISSLQPEDVATYYCQKYNSAPLTFGGGTKVEIK | no binding | no binding
H83L34 (Fab, V domains shown, Soluble Fab) VH: QVQLQESGPGLVKPSETLSLTCTVSGGSISSYYWSWIRQPPGKGLEYIGYIYYSGSTDYNPSLKSRVTISVDTSENQFSLKLSSVTAADTAVYYCARSPPVIRPAMDVWGQGTTVTVSS VL: not shown | no binding | no binding
H39L43 (Fab, V domains shown, Soluble Fab) VH: QVQLVESGGGVVQPGRSLRLSCAASGFTFSNYAMHWVRQAPGKGLEWVAVISYDGSNKYYADSVKGRFTISRDNSKNTLYLQMNSLRPEDTAVYYCARGGVAAFDYWGQGTLVTV VL: not shown | no binding | no binding
H39L46 (Fab, V domains shown, Soluble Fab) VH: QVQLVESGGGVVQPGRSLRLSCAASGFTFSNYAMHWVRQAPGKGLEWVAVISYDGSNKYYADSVKGRFTISRDNSKNTLYLQMNSLRPEDTAVYYCARGGVAAFDYWGQGTLVTV VL: DIVMTQSPLSLPVTPGEPASISCRSSQSLLHSNGNNYLDWYLQKPGQSPQLLIYLASNRASGVPDRFSGSGSGTDFTLKISRVEPEDVGLYYCMQALQTPLTFGGGSKVEIK | no binding | no binding
H39L37 (Fab, V domains shown, Soluble Fab) VH: QVQLVESGGGVVQPGRSLRLSCAASGFTFSNYAMHWVRQAPGKGLEWVAVISYDGSNKYYADSVKGRFTISRDNSKNTLYLQMNSLRPEDTAVYYCARGGVAAFDYWGQGTLVTV VL: not shown | no binding | no binding
H39L44 (Fab, V domains shown, Soluble Fab) VH: QVQLVESGGGVVQPGRSLRLSCAASGFTFSNYAMHWVRQAPGKGLEWVAVISYDGSNKYYADSVKGRFTISRDNSKNTLYLQMNSLRPEDTAVYYCARGGVAAFDYWGQGTLVTV VL: DIVMTQSPVSLAVTPGEPASISCRSSQSLLHSNGYNYLDWYLQKPGQSPQLLIYLGSTRASGVPDRFSGSGSGTDFTLKINRVEAEDVGVYYCMQALQSPFTFGGGTKVEIK | no binding | no binding
H48L24 (Fab, V domains shown, Soluble Fab, clone A) VH: QVQLVESGGGVVQPGRSLRLSCAASGFTISNYHIHWVRQAPGKGLEWVAFISYDGSNKYYADSVKGRFTISRDNSKNTLFLQMNSLTTEDTAVYYCAIVGPFDYRGQGTLVTVSS VL: DIQLTQSPTFLSASVGDRVTITCRASQGISRYLAWYQQKPGKAPKLLIYAASTLQSGVPSRFSGSGSGTDFTLTFSSLQPEDFATYYCQQLNSYPFTFGGGTTVEIK | no binding | no binding
H40L36 (Fab, V domains shown, Soluble Fab) VH: QVQLVESGGGVVQPGRSLRLSCAASTFTFSNYAMHWVRQAPGKGLEWVAVISYDGSNKYYADSVKGRFTISRDNSKNTLYLQMNSLRPEDTAVYYCARGGVAAFDYWGQGTLVTVSS VL: not shown | no binding | no binding
H38L49 (Fab, V domains shown, Soluble Fab) VH: QVQLVESGGGVVQPGRSLRLSCAASGFTFSNYAMHWVRQAPGKGLEWVAVISYDGSNKYYADSVKGRFTISRDNSKNTLYLQMNSLRPEDTAVYYCARGGVGAFDYWGQGTLVTVSS VL: not shown | no binding | no binding
H38L55 (Fab, V domains shown, Soluble Fab) VH: QVQLVESGGGVVQPGRSLRLSCAASGFTFSNYAMHWVRQAPGKGLEWVAVISYDGSNKYYADSVKGRFTISRDNSKNTLYLQMNSLRPEDTAVYYCARGGVGAFDYWGQGTLVTVSS VL: DIVMTQSPLSLPVTPGEPASISCRSNQSVLHSNGRHYLDWYLQKPGQSPQLLIYMVFNRASGVPDRFSGSGSGTDFTLKISRVESEDVGVYYCMQAQQTPVTFGQGTRLDIK | no binding | no binding
H37L40 (Fab, V domains shown, Soluble Fab) VH: QVQLVESGGGVVQPGRSLRLSCAASGFTFSNYAMHWVRQAPGKGLEWVAVISYDGSNKYYADSVKGRFTISRDNSKNTLYLQMNSLRPEDTAVYYCARGGVAAFDYWGQGTLVTVSS VL: DIVMTQSPLSLSVSPGEPASISCRSSQSLLDSNGHNFLDWYLQKPGQSPQLLIFVGSYRALGVPDRFTGSGTGTDFTLKISRVEPEDVGVYYCMQGLQAPITFGQGTKLDIK | no binding | no binding
H37L45 (Fab, V domains shown, Soluble Fab) VH: QVQLVESGGGVVQPGRSLRLSCAASGFTFSNYAMHWVRQAPGKGLEWVAVISYDGSNKYYADSVKGRFTISRDNSKNTLYLQMNSLRPEDTAVYYCARGGVAAFDYWGQGTLVTVSS VL: DIVMTQSPVSLAVTPGEPASISCRSSQSLLHSNGYNYLDWYLQKPGQSPQLLIYLGSTRASGVPDRFSGSGSGTDFTLKINRVEAEDVGVYYCMQALQSPFTFGGGTKVQIK | no binding | no binding
H38L39 (Fab, V domains shown, Soluble Fab) VH: QVQLVESGGGVVQPGRSLRLSCAASGFTFSNYAMHWVRQAPGKGLEWVAVISYDGSNKYYADSVKGRFTISRDNSKNTLYLQMNSLRPEDTAVYYCARGGVGAFDYWGQGTLVTVSS VL: DIVMTQSPPSLPVTPGEPASISCRSSQSLLHTNGYNYLDWYLQKPGQSPQLLIYLGSNRASGVPDRFSGSGSGTDFTLTISRVEAEDVGVFYCMQALEPPYTFGQGTKLEIK | no binding | no binding
H37L47 (Fab, V domains shown, Soluble Fab) VH: QVQLVESGGGVVQPGRSLRLSCAASGFTFSNYAMHWVRQAPGKGLEWVAVISYDGSNKYYADSVKGRFTISRDNSKNTLYLQMNSLRPEDTAVYYCARGGVAAFDYWGQGTLVTVSS VL: not shown | no binding | no binding
H40L53 (Fab, V domains shown, Soluble Fab) VH: QVQLVESGGGVVQPGRSLRLSCAASTFTFSNYAMHWVRQAPGKGLEWVAVISYDGSNKYYADSVKGRFTISRDNSKNTLYLQMNSLRPEDTAVYYCARGGVAAFDYWGQGTLVTVSS VL: not shown | no binding | no binding
H37L41 (Fab, V domains shown, Soluble Fab) VH: QVQLVESGGGVVQPGRSLRLSCAASGFTFSNYAMHWVRQAPGKGLEWVAVISYDGSNKYYADSVKGRFTISRDNSKNTLYLQMNSLRPEDTAVYYCARGGVAAFDYWGQGTLVTVSS VL: not shown | no binding | no binding
H42L38 (Fab, V domains shown, Soluble Fab) VH: QVQLVESGGAMVQPGRSLRLSCAASGFPFSNYAMHWVRQAPGKGLEWVAVISYDGSNKYYADSVKGRFTISRDNSKNTLYLQMNSLRPEDTAVYYCARGGVAAFDYWGQGTLVTVSS VL: not shown | no binding | no binding
H37L44 (Fab, V domains shown, Soluble Fab) VH: QVQLVESGGGVVQPGRSLRLSCAASGFTFSNYAMHWVRQAPGKGLEWVAVISYDGSNKYYADSVKGRFTISRDNSKNTLYLQMNSLRPEDTAVYYCARGGVAAFDYWGQGTLVTVSS VL: DIVMTQSPVSLAVTPGEPASISCRSSQSLLHSNGYNYLDWYLQKPGQSPQLLIYLGSTRASGVPDRFSGSGSGTDFTLKINRVEAEDVGVYYCMQALQSPFTFGGGTKVEIK | no binding | no binding
H37L50 (Fab, V domains shown, Soluble Fab, clone B) VH: QVQLVESGGGVVQPGRSLRLSCAASGFTFSNYAMHWVRQAPGKGLEWVAVISYDGSNKYYADSVKGRFTISRDNSKNTLYLQMNSLRPEDTAVYYCARGGVAAFDYWGQGTLVTVSS VL: not shown | no binding | no binding
H41L51 (Fab, V domains shown, Soluble Fab) VH: QVQLVESGGGVVQPGRSLRLSCAASGSTFSYYAMHWVRQAPGKGLEWVAVISYDGSNKYYADSVKGRFTISRDNSKNTLYLQMNSLRPEDTAVYYCARGGVAAFDYWGQGTLVTVSS VL: not shown | no binding | no binding
H37L48 (Fab, V domains shown, Soluble Fab) VH: QVQLVESGGGVVQPGRSLRLSCAASGFTFSNYAMHWVRQAPGKGLEWVAVISYDGSNKYYADSVKGRFTISRDNSKNTLYLQMNSLRPEDTAVYYCARGGVAAFDYWGQGTLVTVSS VL: not shown | no binding | no binding
H36L35 (Fab, V domains shown, Soluble Fab) VH: QVQLVESGGGVVQPGRSLRLSCAASGFTFSSYAMHWVRQAPGKGLEWVAVISYDGSNKYYADSVKGRFTISRDNSKNTLYLQMNSLRPEDTAVYYCARGGVAAFDYWGQGTLVTVSS VL: not shown | no binding | no binding
H40L42 (Fab, V domains shown, Soluble Fab) VH: QVQLVESGGGVVQPGRSLRLSCAASTFTFSNYAMHWVRQAPGKGLEWVAVISYDGSNKYYADSVKGRFTISRDNSKNTLYLQMNSLRPEDTAVYYCARGGVAAFDYWGQGTLVTVSS VL: not shown | no binding | no binding
H40L52 (Fab, V domains shown, Soluble Fab) VH: QVQLVESGGGVVQPGRSLRLSCAASTFTFSNYAMHWVRQAPGKGLEWVAVISYDGSNKYYADSVKGRFTISRDNSKNTLYLQMNSLRPEDTAVYYCARGGVAAFDYWGQGTLVTVSS VL: not shown | no binding | no binding
H38L54 (Fab, V domains shown, Soluble Fab) VH: QVQLVESGGGVVQPGRSLRLSCAASGFTFSNYAMHWVRQAPGKGLEWVAVISYDGSNKYYADSVKGRFTISRDNSKNTLYLQMNSLRPEDTAVYYCARGGVGAFDYWGQGTLVTVSS VL: not shown | no binding | no binding
